Measured values published in article PMC4227774, “RppH-dependent pyrophosphohydrolysis of mRNAs is regulated by direct interaction with DapF in Escherichia coli” (Nucleic Acids Research, 2014).
Changes are numbered by the printed parent chain.

T1: His-RppH co-expressed with DapF from pDuet-RD (E. coli, UniProt P0A776 1-176)
T1 construct: RppH (NudH), RNA pyrophosphohydrolase, E. coli; source: E. coli ER2566 harboring pDuet-RD (from the pET-duet vector), in crude extract
T1 sequence (looked up): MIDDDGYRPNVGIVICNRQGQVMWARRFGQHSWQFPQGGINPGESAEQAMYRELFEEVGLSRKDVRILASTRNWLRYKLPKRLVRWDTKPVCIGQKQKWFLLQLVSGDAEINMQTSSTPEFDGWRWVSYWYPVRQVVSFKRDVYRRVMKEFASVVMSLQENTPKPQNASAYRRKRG

T2: His6-RppH (6His-tagged form of RppH, RNA pyrophosphohydrolase) (E. coli, UniProt P0A776 1-176)
T2 construct: RppH (NudH), RNA pyrophosphohydrolase, E. coli; rppH gene amplified from MG1655 genomic DNA with primers at the ATG start codon and 20 bp downstream of the TAA stop codon; also called His-RppH; His-tagged RppH
T2 sequence (looked up): T1 sequence (looked up)

T3: DapF(C73&217A) (E. coli, UniProt P0A6K1 1-274, C73&217A | C73&217A)
T3 construct: DapF, diaminopimelate epimerase, E. coli; the two catalytic cysteines C73 and C217 substituted to alanine; The methods list His-DapF(C73&217A) among the purified proteins; results and legends call it DapF(C73&217A); also called His-DapF(C73&217A); mutant DapF
T3 sequence (looked up): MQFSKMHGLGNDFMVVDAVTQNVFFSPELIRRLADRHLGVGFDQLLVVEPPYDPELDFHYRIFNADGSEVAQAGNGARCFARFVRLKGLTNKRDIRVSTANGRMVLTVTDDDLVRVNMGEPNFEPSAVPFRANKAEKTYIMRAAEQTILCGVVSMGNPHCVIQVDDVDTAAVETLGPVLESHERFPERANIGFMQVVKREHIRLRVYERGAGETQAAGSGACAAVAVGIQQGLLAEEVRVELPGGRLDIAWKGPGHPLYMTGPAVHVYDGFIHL

B1: DapF co-expressed with His-RppH from pDuet-RD (enzyme, E. coli, UniProt P0A6K1 1-274, looked up)
chain: T3 sequence (looked up) with A73C, A217C
notes: DapF, diaminopimelate epimerase, E. coli; source: E. coli ER2566 harboring pDuet-RD (from the pET-duet vector), in crude extract
B2: DapF, diaminopimelate (DAP) epimerase, purified (enzyme, E. coli, UniProt P0A6K1 1-274, looked up)
chain: T3 sequence (looked up) with A73C, A217C
notes: DapF, diaminopimelate epimerase, E. coli; The text sets 'purified DapF' (untagged) against His-DapF in the pull-downs; also called purified DapF; untagged DapF; source: purified
B3: RppH, RNA pyrophosphohydrolase, purified (enzyme, E. coli, UniProt P0A776 1-176, looked up)
chain: T1 sequence (looked up)
notes: RppH (NudH), RNA pyrophosphohydrolase, E. coli; Named only 'RppH' in gel filtration, SPR and the activity assays; The methods describe only the purification of His-RppH, so this may be the same protein as m1; also called purified RppH; NudH; source: purified

Tests used:
[1] = target: T1, His-RppH co-expressed with DapF from …; test: pull-down; DapF and His-RppH co-expressed from pDuet-RD in E. coli ER2566; crude extract loaded onto a TALON metal affinity column; SDS-PAGE; details: partners not purified
[2] = target: the molecule itself; test: SEC; Superose 12 10/300 GL, 50 mM Tris-HCl pH 8.0, 100 mM NaCl, room temperature, 0.5 ml/min; 50 μg RppH, 400 μg DapF (or 100 μg DapF(C73&217A)) or both in 250 μl, incubated 10 min on ice; fractions on SDS-PAGE
[3] = target: B3; test: as above; details: both partners purified
[4] = target: T2, His6-RppH (6His-tagged form of RppH, …); test: pull-down; purified DapF mixed with varying amounts of His-RppH or the control protein His-enzyme IIA^Ntr on the metal affinity resin; band intensities on gel; details: both partners purified
[5] = target: B2; test: SPR; BIAcore 3000; RppH amine-coupled to a CM5 chip (0.7 ng/mm^2); DapF at 20, 50 and 70 μg/ml flowed at 10 μl/min; 10 mM HEPES pH 7.2, 150 mM NaCl, 10 mM KCl, 1 mM MgCl2, 0.5 mM EDTA; fit assumes a dimer–dimer interaction; details: both partners purified
[6] = target: T3, DapF(C73&217A); test: SEC; Superose 12 10/300 GL, 50 mM Tris-HCl pH 8.0, 100 mM NaCl, room temperature, 0.5 ml/min; 50 μg RppH, 400 μg DapF (or 100 μg DapF(C73&217A)) or both in 250 μl, incubated 10 min on ice; fractions on SDS-PAGE; details: both partners purified

Binder: B1
stoichiometry N [1]: 1 DapF:RppH

Binder: B2
stoichiometry N [2]: 2
stoichiometry N [3]: 1 DapF:RppH (2:2)
stoichiometry N [4]: 1 DapF:RppH

Binder: B3
Kd [5]: ~5.2 nM
binding result [6]: binds
